# Where a chain is given by its changes, count along the chain named. In names and notes the source's numbering stands. Entries after “also recorded” stand apart in the source; their conditions may differ.
# B1: ApoE2-M3F: SEQ ID NO: 60; ApoE2 with 3×FLAG added between residues 215 and 216 (protein)
# chain: KVEQAVETEPEPELRQQTEWQSGQRWELALGRFWDYLRWVQTLSEQVQEELLSSQVTQELRALMDETMKELKAYKSELEEQLTPVAEETRARLSKELQAAQARLGADMEDVCGRLVQYRGEVQAMLGQSTEELRVRLASHLRKLRKRLLRDADDLQKCLAVYQAGAREGAERGLSAIRERLGPLVEQGRVRAATVGSLAGQPLQERAQAWGERLRGSGGSDYKDHDGDYKDHDIDYKDDDDKSGSGSARMEEMGSRTRDRLDEVKEQVAEVRAKLEEQAQQIRLQAEAFQARLKSWFEPLVEDMQRQWAGLVEKVQAAVGTSAAPVPSDNH
# modifications: 3xFLAG inserted between residues 215 and 216
# B2: ApoE2 MD10: SEQ ID NO: 61; ApoE2 with amino acid residues at positions 244 to 254 deleted (protein)
# chain: KVEQAVETEPEPELRQQTEWQSGQRWELALGRFWDYLRWVQTLSEQVQEELLSSQVTQELRALMDETMKELKAYKSELEEQLTPVAEETRARLSKELQAAQARLGADMEDVCGRLVQYRGEVQAMLGQSTEELRVRLASHLRKLRKRLLRDADDLQKCLAVYQAGAREGAERGLSAIRERLGPLVEQGRVRAATVGSLAGQPLQERAQAWGERLRARMEEMGSRTRDRLDEVKEQVAEVRAKLEAFQARLKSWFEPLVEDMQRQWAGLVEKVQAAVGTSAAPVPSDNH
# B3: CT E20: SEQ ID NO: 55; multiple site mutant of ApoE CT (protein)
# chain: ARMEEMGSRTRDRLDEVKEAVAEVRAKLEEQAQQIRLQAAAFQARLKSWFEPLVEDMQRAWAGLVEKVQAAVGTSAAPVASDNH
# B4: CT E5: SEQ ID NO: 53; multiple site mutant of ApoE CT (protein)
# chain: B3 chain with T10A, D15A, R25A, E30A, I35A, R45A, F50A, E55A, V65A, S75A
# B5: CT A60: SEQ ID NO: 48; ApoE CT mutant Q60A (Q275A of SEQ ID NO: 12) (protein)
# chain: B3 chain with A20Q, A40E, A80P
# B6: CT R10: SEQ ID NO: 57; ApoE CT mutant S75A + P78A + V79A + P80A + S81A + D82A + N83A + H84A (protein)
# chain: B3 chain with A20Q, A40E, A60Q, S75A, P78A, V79A, S81A, D82A, N83A, H84A
# B7: CT A20: SEQ ID NO: 46; ApoE CT mutant Q20A (Q235A of SEQ ID NO: 12) (protein)
# chain: B3 chain with A40E, A60Q, A80P
# B8: CT A40: SEQ ID NO: 47; ApoE CT mutant E40A (E255A of SEQ ID NO: 12); table prints CT A20 (protein)
# chain: B3 chain with A20Q, A60Q, A80P
# B9: CT F5: SEQ ID NO: 56; multiple site mutant of ApoE CT (protein)
# chain: B3 chain with R2A, M3A, E4A, E5A, A20Q, A40E, A60Q, A80P
# B10: CT A36/74: SEQ ID NO: 52; ApoE CT mutant R36A + T74A (R251A + T289A of SEQ ID NO: 12) (protein)
# chain: B3 chain with A20Q, R36A, A40E, A60Q, T74A, A80P
# B11: CT A80: SEQ ID NO: 51; ApoE CT mutant P80A (P295A of SEQ ID NO: 12) (protein)
# chain: B3 chain with A20Q, A40E, A60Q
# B12: CT LF5: SEQ ID NO: 58; ApoE CT mutant R11A + D12A + R13A + L14A + D15A (protein)
# chain: B3 chain with R11A, D12A, R13A, L14A, D15A, A20Q, A40E, A60Q, A80P
# B13: CT LM5: SEQ ID NO: 59; ApoE CT mutant E23A + V24A + R25A + K27A (protein)
# chain: B3 chain with A20Q, E23A, V24A, R25A, K27A, A40E, A60Q, A80P
# B14: CT E10: SEQ ID NO: 54; multiple site mutant of ApoE CT (protein)
# chain: B3 chain with T10A, E30A, F50A
# B15: monkey CT: SEQ ID NO: 62; non-human primate-derived ApoE CT, R36S+T74A+A76T versus human ApoE CT (protein)
# chain: B3 chain with A20Q, R36S, A40E, A60Q, T74A, A76T, A80P
# B16: CT A72: SEQ ID NO: 50; ApoE CT mutant V72A (V287A of SEQ ID NO: 12) (protein)
# chain: B3 chain with A20Q, A40E, A60Q, V72A, A80P
# B17: CT A65: SEQ ID NO: 49; ApoE CT mutant V65A (V280A of SEQ ID NO: 12) (protein)
# chain: B3 chain with A20Q, A40E, A60Q, V65A, A80P
# Tested on: human APP co-expressed in HEK 293T cells
# Experiment: α-CTF produced by APP co-expressed in HEK 293T cells (Western blot)
# Assay type: cell-based
# Details: for α-CTF produced by co-expressed APP: Western blot, vs GFP control; for degree of α-CTF increase compared to ApoE CT: ApoE CT positive control
# Experimental: • a) A plasmid expressing the target protein in mammalian cells was constructed, and the protein expression promoter is CAG. • b) The target protein was expressed in HEK 293T cell line. Cells were subcultured one day before transfection, and transfection was performed when the degree of cell adhesion reached 70%-80%. The transfection reagent was lipofectamine2000 (ThermoFisher). • c) 4-6 hours post transfection, the medium were replaced with fresh cell culture medium. • d) 36-48 hours post transfection, the cells were lysed (10% 1M tris-HCl (pH=6.8), 4% SDS, 20% glycerol, 0.01% bromophenol blue), and the protein samples were collected and used for Western blot or stored in a −80° C. freezer. • e) Polyacrylamide gel electrophoresis. Before protein loading, the protein was boiled at 98° C. for 10 min, and then centrifuged at 12000 rpm for 10 min. Electrophoresis: 80V for the upper stacking gel; 120V for the lower separating gel. • f) Protein transfer. The filter paper was soaked in the electrophoresis solution before use, and the PVDF membrane was put in methanol for 10s to activate, and the gel after electrophoresis was taken out from the electrophoresis tank, put in the order of filter paper—PVD membrane—gel-filter paper from bottom to top, and they were put into the transfer instrument, with transferring in constant current at 0.1 A for 70 min. • g) Blocking and antibody incubation: the transferred PVDF membrane was placed in 5% BSA/TBST blocking solution, and blocked on a shaker at room temperature for 1 hour. The primary antibody was used to incubate at 4° C. overnight on a shaker (12-16 h); 1×TBST was used to wash three times, once every 10 minutes; the secondary antibody was used to incubate, shaked at room temperature for 1-2 h; 1×TBST was used to wash three times, once every 10 minutes. • h) Imaging by development: development was performed with ECL chemiluminescence hypersensitive chromogenic reagent.
# Plasmids were transfected in HEK 293T or N2A cells for 36-48 hours and then lysed in cell lysis buffer [10% 1M tris-HCl (pH=6.8), 4% SDS, 20% glycerol, 0.01% bromophenol blue]. Lysates were shaken at room temperature for 10 min, then boiled for 10 min, and centrifuged at 12,000×g for 10 min. Proteins were run on 8% or 12% Tris-glycine SDS-PAGE and transferred to PVDF membranes (Life Technologies). Samples were incubated overnight at 4° C. with primary antibody diluted in 5% BSA buffer (in 1×TBST). After washing 3 times with 1×TBST, they were incubated with secondary antibody diluted in 5% BSA buffer (in 1×TBST) for 2 hours at room temperature. Finally, after washing 3 times with 1×TBST, the signal was detected by ECL Western blotting substrate (Solarbio, PE0010).
# Data were analyzed by GraphPad Prism software (v6) using unpaired, paired, or one-sample t-tests. Aβ40 and Aβ42 levels were normalized to the corresponding GFP controls. α-CTF levels were normalized to FL-APP and corresponding GFP controls. All data are represented as mean±SEM. Statistical significance was defined as p<0.05. One, two, three and four stars (*) in the graph indicate p-values <0.05, <0.01, <0.001 and <0.0001, respectively.
Molecule,α-CTF produced by co-expressed APP,degree of α-CTF increase compared to ApoE CT,α-CTF produced by co-expressed APP (listed as ApoE CT from a non-human primate)
B1,significantly increases α-CTF; also recorded: increased α-CTF,–,–
B2,significantly increases α-CTF; also recorded: also increased α-CTF,–,–
B3,can no longer increase α-CTF; also recorded: failed to increase,–,–
B4,can no longer increase α-CTF; also recorded: failed to increase,–,–
B5,significantly increased α-CTF,–,–
B6,still significantly increase α-CTF; also recorded: can also significantly increase α-CTF,–,–
B7,significantly increased α-CTF,–,–
B8,significantly increased α-CTF,–,–
B9,can no longer increase α-CTF; also recorded: failed to increase,–,–
B10,significantly increased α-CTF,even higher,–
B11,significantly increased α-CTF,even higher,–
B12,still significantly increase α-CTF; also recorded: can also significantly increase α-CTF,–,–
B13,still significantly increase α-CTF; also recorded: can also significantly increase α-CTF,–,–
B14,can no longer increase α-CTF; also recorded: failed to increase,–,–
B15,also increase α-CTF,identical to that of human ApoE CT,significantly increased α-CTF
B16,significantly increased α-CTF,even higher,–
B17,significantly increased α-CTF,–,–

# Reference: US20250108100A1, “C-TERMINAL FRAGMENT OF APOLIPOPROTEIN E AND APPLICATION THEREOF IN INHIBITING y-SECRETASE ACTIVITY” (SYNPHATEC (SHANGHAI) BIOPHARMACEUTICAL TECHNOLOGY CO., LTD., priority 2022, published 2025)
